Here are results for one substance from paper PMC10055720.

The target in the test is human TERT∆TEN D788R, FLAG-tagged, co-expressed with TR (human).

In the case of “human TERT TEN domain (aa 2–197), Myc-tagged (from UniProt O14746 2-197) (domain or fragment)”, the POT1–TPP1-stimulated processivity in the trans complementation primer extension assay, relative to WT came to 64% and the total telomerase activity in the trans complementation primer extension assay, relative to WT TERT∆TEN with TEN is 24 % of WT.
